The record followed here is patent US20230040568A1.

The target of the assay is KIR3DL3 protein (antigen of the affinity determination of Table 3) (human) (UniProt Q8N743). Nature of the assay: method and antigen format not stated.
Sequence of KIR3DL3 protein (antigen of the affinity determination of Table 3) (human) (Q8N743 other isoform, or with tags, fused parts or gaps limits assumed): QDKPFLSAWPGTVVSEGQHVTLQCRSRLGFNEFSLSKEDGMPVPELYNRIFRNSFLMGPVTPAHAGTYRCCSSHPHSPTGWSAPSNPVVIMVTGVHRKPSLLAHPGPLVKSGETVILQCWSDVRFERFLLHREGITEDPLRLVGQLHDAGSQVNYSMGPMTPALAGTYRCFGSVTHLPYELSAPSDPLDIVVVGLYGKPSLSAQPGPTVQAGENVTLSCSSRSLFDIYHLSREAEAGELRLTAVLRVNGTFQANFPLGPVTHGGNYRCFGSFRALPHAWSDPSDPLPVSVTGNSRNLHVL

B1: monoclonal 26E2 (antibody, part only; not given: VH framework 1 and CDR1, V domains shown, part only)
VH, part: RWVKQTPGQGLEWIGYIYPGDGGTNCNQKFQGKATLTADTSSSTAYMQISSLTSEDSAVYFCARSGNYGNYEGFAFWGQGTLVTVSA
VL: DIKMTQSPSSMYASLGERVTITCKASQDTNSYLSWFQQKPGKSPKTLIYRANRLVDGVPSRFSGSGSGQDYSLTISRLEYEDMGIYYCLQYNEFPYTFGGGTKLEIKRADA
On to B1, for which the Kd (usually a measure of binding affinity in units of concentration) was 0.26 nM. This counts as sub-nanomolar.
